Laboratory results taken from paper PMC5993284, “Peptide inhibitors of the anaphase promoting-complex that cause sensitivity to microtubule poison” (PLoS ONE, 2018).
“Also recorded” adds a separate entry of the source.

What was measured:
APC/C^Cdh1 = APC/C^Cdh1 enzyme assay (ubiquitination of 35S-Pds1); format: biochemical, Saccharomyces cerevisiae; settings: 220 μM peptide; 35S-Pds1 substrate; time course 0-60 minutes; vs buffer; n = 3
Experimental: Full-length, radio-labeled protein purifications were preformed as previously described. ^35S-Pds1 was prepared in a 500 μL IVT/T (In Vitro Transcription/Translation) reaction (Promega, USA), which contained 400 μL rabbit reticulocyte lysate, 20 μL of L-^35S-methionine (PerkinElmer, USA), 10 μg of plasmid DNA, and the remaining volume as nuclease-free ddH2O as recommended by the manufacturer. The reaction mixture was incubated for 2 hours at room temperature and gently mixed every 30 minutes. The reaction was added to pre-equilibrated IgG Sepharose beads (GE Healthcare, USA) in Bio-spin disposable chromatography columns (Bio-Rad, USA) for binding for 2 hours at room temperature. To ensure efficient binding, the beads were re-suspended several times every 30 minutes. After binding, the beads were washed with 5 mL wash buffer, containing 200 mM 4-(2-hydroxyethyl)-1-piperazineethanesulfonic acid (HEPES) at pH 8.0, 150 mM NaCl, 10% (v/v) glycerol, and 1 mM dithiothreitol (DTT). The ^35S-Pds1 was cleaved from the beads using TEV (Tobacco Etch Virus) protease in 1x TEV buffer (Invitrogen, USA) for 2 hours at room temperature, and the mixture was re-suspended several times every 30 minutes to promote efficient cleavage. The elution was collected and concentrated by employing an Amicon Ultra filter column (Millipore, Ireland). The concentrated ^35S-Pds1 was collected in a new tube, and stored at -20 °C.
(§1) The production of Cdc20 or Cdh1 was prepared by IVT/T reactions, where 16 μL of rabbit reticulocyte lysate, 20 μM L-methionine, 0.4 μg of plasmid DNA, and a volume of nuclease-free ddH2O for a total volume of 20 μL. This freshly synthesized Cdc20 or Cdh1 protein was used directly in all APC/C assays after a 1-hour synthesis reaction at room temperature. The APC/C was purified for enzyme assays from 1 mL of TAP-tagged Cdc16 yeast extract (SCSY51) where extract was mixed with 50 μL 50:50 slurry magnetic beads (Invitrogen, Norway) for 2 hours at 4 °C. After incubation, the beads were washed with 3 mL APC/C wash buffer (200 mM of HEPES, 150 mM of NaCl and 10% (v/v) of glycerol). APC/C bound to IgG magnetic beads was used directly in the enzyme assays.
APC/C assays were performed by adding the reaction contents in following order: 4.3 μL of QAH buffer, 20 μL of rabbit reticulocyte lysate containing Cdc20 or Cdh1 with or without an additional volume of recombinant checkpoint protein(s) or inhibitor peptides, 2.4 μL ubiquitin aldehyde (Boston Biochem, USA), APC/C, 16 μL pre-charged E1/E2/ATP/ubiquitin mix, and 13.3 μL of ^35S-Pds1 with QAH buffer (20 mM HEPES at pH 8.0, 100 mM NaCl, and 1 mM MgCl2). […]

APC/C [1] = assay: Biotinylated peptide pull-down of purified APC/C, Western blot; format: binding, Saccharomyces cerevisiae; settings: 20 μM biotinylated peptide, purified yeast APC/C, 1 h at 4 °C, streptavidin/Avidin beads, n = 3
Experimental: For APC/C purification, the APC/C which contain Cdc16-TAP-tag was isolated from 2 mL arrested yeast lysate by 120 μL IgG sepharose 6 Fast Flow beads (GE Healthcare Life Sciences) and incubate for 2 h at 4 °C on a rotating wheel. Beads were collected washed with 5 mL of APC/C wash buffer (200 mM Hepes pH8.0, 150 mM NaCl, 10% glycerol). Beads were resuspended in 150 μL of APC/C wash buffer contain 17.6 units of AcTEV protease (Invitrogen, Carlsbad, CA) at 4°C for 3 h with pipetting every 20 minutes. The purified APC/C was collected in the flow-through.
For APC/C binding assays, 20 μM biotinylated peptides or 20 μM peptides only as a negative control were incubated with purified APC/C and 100 μL APC/C wash buffer which contains phosphatase inhibitors (200 mM Hepes pH 8.0, 150 mM NaCl, 10% glycerol, 10 mM NaF, 1 mM NaVO4, 5 mM Na-pyrophosphate, 10 mM 2-glycerol phosphate) for 1 h at 4 °C. The mixtures were applied to 120 μL streptavidin beads (Dynabeads MyOne Streptavidin T1, Invitrogen) for 30 min at 4 °C with gentle pipetting every 10 min. Beads were washed with 1 mL of PBST buffer (Phosphate buffer saline and 0.1% Tween 20) three times SDS-PAGE protein sample was added directly. For APC/C binding competition experiments, the biotinylated peptide and 10-fold excess non-biotinylated peptides were added to purified APC/C at same time.
Free D-biotin in 10% DMSO was used for the control binding assays. For pre-coating APC/C with biotin, a modified APC/C purification was performed. 2 mL yeast lysate was incubated with 120 μL IgG Sepharose beads and additional 20.4 μM free biotin or non-biotin solvent as a positive control was added and samples were incubated for 2 h at 4 °C on a rotating wheel. Purified pre-coated APC/C was then removed from the IgG Sepharose following the standard purification procedure. 20 μM biotinylated peptides or 20 μM peptides as a negative control were incubated with pre-coated APC/C and 100 μL APC/C wash buffer which contain phosphatase inhibitors for 1 h at 4 °C. In addition, 20 μM biotinylated peptide was added and incubated with pre-coated APC/C in a non-biotin containing solvent as positive control. Pre-coated APC/C binding procedures were same as above. For pre-coating streptavidin beads with biotin, streptavidin beads were washed in the presence of 10.2 nmol/mL D-biotin in PBST buffer or non-biotin solvent as a positive control before use. Pre-coated streptavidin beads were incubated with purified APC/C-peptide complexes with an extra […] biotin for 30 minutes with gentle pipetting every 10 min at 4 °C.
Proteins were separated in SDS-PAGE gels and then were transferred to PVDF membrane. Blocking was performed by incubating samples in 20 mL PBST with 5% milk at 4 °C. Rabbit anti-tap (Thermo, CAB1001) was used as primary antibodies at a 1:1000 dilution and incubated for 2 hours at RT. Anti-rabbit HRP (Jackson, USA) was then used as secondary antibody at 1:5000 dilution and incubate for 1 hr at RT. Chemiluminescence signals were detected using an ImageQuant LAS 4000 (GE Healthcare Bio-Sciences, USA). For cell cycle timing Western blots anti-MYC and anti-Actin antibodies were employed (ABCAM, UK).

APC/C^Cdc20 = target: T1, APC/C^Cdc20 (Saccharomyces cerevisiae, UniProt P16522+P53886); assay: biochemical; format: biochemical; settings: 220 μM peptide; 35S-Pds1 substrate; time course 0-60 minutes; vs buffer only; n = 3
T1 construct: constructed within full-length Cdc20 by site-directed mutagenesis for analysis in vitro in the APC/C^Cdc20 assay; The APC/C was purified for enzyme assays from 1 mL of TAP-tagged Cdc16 yeast extract (SCSY51); made in house; host or cells: Cdc20: in vitro transcription/translation in rabbit reticulocyte lysate, used unpurified; APC/C: S. cerevisiae strain SCSY51 (Cdc16-TAP) extract, captured on IgG magnetic beads
Method in brief: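 Bead-bound TAP-Cdc16 yeast APC/C was mixed with IVT-made Cdc20 or Cdh1, pre-incubated 1 h at rt with checkpoint proteins or inhibitor peptides, plus pre-charged E1/E2/ATP/ubiquitin and ^35S-Pds1 in 20 mM HEPES pH 8.0, 100 mM NaCl, 1 mM MgCl2. Time points were stopped in SDS buffer and resolved by SDS-PAGE.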

APC/C [2] = assay: APC/C activity promoted by mutant Cdc20 alleles in the presence of Mad2 (Pds1 remaining); format: biochemical, Saccharomyces cerevisiae; settings: 5.0 μM Mad2, n = 3
Experimental: as §1
APC/C assays were performed by adding the reaction contents in following order: 4.3 μL of QAH buffer, 20 μL of rabbit reticulocyte lysate containing Cdc20 or Cdh1 with or without an additional volume of recombinant checkpoint protein(s) or inhibitor peptides, 2.4 μL ubiquitin aldehyde (Boston Biochem, USA), APC/C, 16 μL pre-charged E1/E2/ATP/ubiquitin mix, and 13.3 μL of ^35S-Pds1 with QAH buffer (20 mM HEPES at pH 8.0, 100 mM NaCl, and 1 mM MgCl2). The E1/E2/ATP/ubiquitin mix were pre-charged by mixing 1 μL of E1 (Boston Biochem, USA), 1 μL of E2 (Boston Biochem, USA), 14.4 μL of ATP, 14.4 μL of […] (Boston Biochem, USA), and 17.2 μL of QAH buffer and incubated for 15 minutes at room temperature. Approximately 15 μL of samples were taken out at each time point, and the reaction was stopped by the addition of 2x protein sample buffer (125 mM Tris-HCl pH 6.8, 4% SDS, 20% glycerol, and 0.002% bromophenol blue, with 10% (final v/v) 2-mercaptoethanol added in fresh directly before use).
For inhibitor titration and time-course experiments, recombinant Bub3, Mad2, Mad3, and the Mad3-Bub3 complex were expressed and purified as previously described. Inhibitory peptides were synthesized by standard procedures and purified to 99% purity by HPLC (Kelowna International Scientific Inc., Taiwan). For inhibition of APC/C the co-factor Cdc20 or Cdh1 was made fresh by IVT/T, and pure recombinant checkpoint proteins or inhibitor peptides were added to the IVT/T mixture and incubated for an additional hour at room temperature. In titrations, a dilution series of the checkpoint protein(s) were made before incubation with the Cdc20 co-factor. […]
Our first goal was to measure the ability of the mutant alleles to promote APC/C activity in vitro. To ensure any observed change in APC/C activity reflected a change in function, and not a change in the amount of Cdc20 co-factor protein produced by IVT/T, the amounts of Cdc20 protein produced by IVT/T was measured, and no significant difference was observed (S4 Table). […]

hp31: 39 amino acid residue human peptide derived from human p31^comet amino acid residues 219–258 (RNCGEDWFRPKLNYRVPSRGHKLTVTLSCGRPSIRTTAWE; UniProt Q15013 219-258, looked up, fragment)
inhibition of APC/C^Cdh1 activity (in words) (APC/C^Cdh1): inhibited both budding yeast APC/C^Cdc20 (Fig 13B) and APC/C^Cdh1; also recorded: inhibits yeast APC/C^Cdh1 | binding to APC/C (in words) (APC/C [1]): bound to budding yeast APC/C directly; also recorded: can pull-down budding yeast APC/C at 20 μM peptide | inhibition of APC/C^Cdc20 activity (in words) (APC/C^Cdc20): inhibited both budding yeast APC/C^Cdc20; also recorded: inhibits yeast APC/C^Cdc20

B1: Cdc20-106 (P209Q): spindle checkpoint by-pass mutant allele of Cdc20, P209Q (protein)
chain: MPESSRDKGNAAISGNRSVLSIASPTKLNILSSDWSRNQGKVSKNSLKRSSSLNIRNSKRPSLQASANSIYSRPKITIGAPPLIRRDSSFFKDEFDAKKDKATFSAYSSRSYPTIGSESVVSQTSLSQPTTSREVDEQFTVAADRYIPILQGASQNKVDPETLHEALPPPNASPISHLRAQTKIVFKQNVAEACGLDMNKRILQYMPEQPKCSSLRQKSYIMKKRTHYSYQQEQKIPDLIKLRKINTNPERILDAPGFQDDFYLNLLSWSKKNVLAIALDTALYLWNATTGDVSLLTDFENTTICSVTWSDDDCHISIGKEDGNTEIWDVETMSLIRTMRSGLGVRIGSLSWLDTLIATGSRSGEIQINDVRIKQHIVSTWAEHTGEVCGLSYKSDGLQLASGGNDNTVMIWDTRTSLPQFSKKTHTAAVKALSWCPYSPNILASGGGQTDKHIHFWNSITGARVGSINTGSQVSSLHWGQSHTSTNGGMMNKEIVATGGNPENAISVYNYETKFKVAEVVHAHEARICCSQLSPDGTTLATVGGDENLKFYKIFDPRCTGRSREDGLMDGMLGLIGKEGCRTNDKENRSKNSSEIHTRRPSSTSQYLIR
ability of mutant Cdc20 to promote APC/C activity in the presence of Mad2 (in words) (APC/C [2]): consistently displayed APC activity in the presence of Mad2 | ability of mutant Cdc20 to promote APC/C activity in the presence of Mad2 (in words) (APC/C [2]; listed as Cdc20-106): promote APC/C activity at the same level as control reactions even in the presence of 5.0 μM Mad2
